What all share (assay): flow cytometry, blocking of binding to hACE-2 cells
Experiment [1] addresses T1, recombinant SARS-CoV-2 spike S1 RBD (R319-F541), C-terminal 6-His (SARS-CoV-2, UniProt P0DTC2 319-541).
The target of experiment [2] is T1, recombinant SARS-CoV-2 spike S1 RBD …. This is another data set of the same source.
Experiment [3] addresses BR P.1 variant RBD (R319-F541 with K417T, E484K, N501Y), C-terminal 6-His (SARS-CoV-2, UniProt P0DTC2 319-541).
In experiment [4] the target is IN v2 variant RBD (R319-F541 with L452R, T478K) (SARS-CoV-2, UniProt P0DTC2 319-541).
The target of experiment [5] is rSARS2-B.1.1.7 S aa16-1211 2x aa mut., C-His (SARS-CoV-2, UniProt P0DTC2 16-1211).
In experiment [6] the target is rSARS2 RBD aa319-541, N439K, C-His (SARS-CoV-2, UniProt P0DTC2 319-541).
Experiment [7] has as its target rSARS2-B.1.617.2 S aa16-1211 10+4x aa mut., C-His (SARS-CoV-2, UniProt P0DTC2 16-1211).
Experiment [8] has as its target rSARS2-B.1.1.7 S aa16-1211 4x aa mut., C-His (SARS-CoV-2, UniProt P0DTC2 16-1211).

Read-outs that look alike come from different tables or passages of the source.

B1: 1035752 (antibody, V domains shown)
VH: QVQLQQPGAELVRPGASVKMSCKASGYTFTSHSIHWVKQTPGQGLEWIGAVYPGNGDTSYYQKFKGKATLTADKSSSTAYMHLSSLTSEDSAVYYCARDGYSDYYAMDCWGQGTSVTVSS
VL: DIVMTQSQKFMSTSVGDRVSVTCKASQNVGTNVAWYQQKPGQSPKALIYSASYRYSGVPDRFTGSGSGTDFTLTINNVQSEDLAEYFCQQYNRYPWTFGGGTKLEIK
Turning to B1, the percent blocking in experiment [1] came out at 94.5%; in experiment [2], 94.5%; in experiment [3] it was 77.2%; in experiment [4], 0.8%; in experiment [5], 81.4%; in experiment [6], 53%. The percent blocking is 0% in experiment [7] and 74.4% in experiment [8].

B2: 1035433 (antibody, V domains shown)
VH: QVQLQQSGPQLVRPGASVKISCKASGYSFTIYWMHWVQQRPGQGLEWIGMIDPSDSETRLNQKFKDKATLTVDKSSSTAYMQLSSPTSEDSAVYYCARRGDYNFDYWGQGTTLTVSS
VL: DIVMTQAAPSVPATPGESVSISCRSSKSLLHSNGNTYLYWFLQRPGQSPQLLIFRMSNLASGVPDRFSGSGSGTAFTLRISRVEAEDVGVYYCMQHLEYPYTFGGGTKLEIK
In the case of B2, the percent blocking in experiment [1] was 93.7%; in experiment [2] it was 93.7%; in experiment [3], 0%; in experiment [4], 18.4%; in experiment [5], 82%; in experiment [6], 0.9%. The percent blocking is 93.8% in experiment [7] and 23.5% in experiment [8].

B3: 1035716 (antibody, V domains shown)
VH: EVLLQQSGPELVKPGASVKIPCKASGYTFTDYNMDWVKQSHGKSLEWIGDINPNNGGTIYNQKFKGKATLTVDKSSSTAYMELRSLTSEDTAVYYCAREGYGNYFDYWGQGTTLTVSS
VL: DILLTQSPAILSVSPGERVSFSCRASQSIGTSIHWYQQRTNGSPRLLIKYASESISGIPSRFSGSGSGTDYTLSINSVESEDIADYYCQQSYSWPTTFGAGTKLELK
Take B3: the percent blocking in experiment [1] came out at 94.6%; in experiment [2] it was 94.6%; in experiment [3], 95%; in experiment [4], 96.5%; in experiment [5], 94.4%; in experiment [6], 96.2%. For the same molecule, the percent blocking in experiment [7] was 89.3%; in experiment [8], 81.5%.

B4: 1035423 (antibody, V domains shown)
VH: EVKLEESGGGLVQPGGSMKLSCTASGFTFSDAWMDWVRQSPEKGLEWVAEIRNKANNHATYYAESVKGRFTISRDDSKSSVYLQMNSLRAEDTGIYYCILFITYAMDYWGQGTSVTVSS
VL: DIVLTQSQKFMSTSVGDRVSITCKASQNVRTAVAWYQQKPGQSPKALIYLASNRHTGVPDRFTGSGSGTDFTLTISNVQSEDLADYFCLQHWNYPLTFGSGTKLELK
Regarding B4, the percent blocking was 94.1% in experiment [1]; 94.1% in experiment [2]; 22% in experiment [3]; 81.4% in experiment [4]; 71.1% in experiment [5]; 34.6% in experiment [6]. Also, the percent blocking in experiment [7] worked out at 89.5%; in experiment [8] it was 75.9%.

B5: 1035755 (antibody, V domains shown)
VH: EVQLQQSGAELVRPGALVKLSCKASGFNIKDYYMHWVKQRPEQGLEWIGWIDPENGNSIYDPKFQGKASITADTSSNTAYLQLSSLTSEDTAVYYCATPSATSYFDYWGQGTTLTVSS
VL: QIVLTQSPAIMSASPGEKVTISCSASSSVSYMYWYQQKPGSSPKPWIYRTSNLASGVPARFSGSGSGTSYSLTISSMEAEDAATYYCQQYHSYPYMYTFGGGTKLEIK
Consider B5, for which the percent blocking in experiment [1] was found to be 94.1%; in experiment [2], 94.1%; in experiment [3] it was 14.9%; in experiment [4], 0.9%; in experiment [5], 12%; in experiment [6], 25.2%. Also, the percent blocking in experiment [7] is 0%; in experiment [8], 35.8%.

B6: 1035414 (antibody, V domains shown)
VH: QVQLKQSGAELVRPGASVKLSCKTSGYIFTSYWIHWVKQRSGQGLEWIARIYPGTGNTYYNEKFKGKATLTADKSSTTAYMQLSSLKSEDSAVYFCARGEDNLYYYAMDYWGQGTSVTVSS
VL: NIVLTQSPASLAVSLGQRATISCRASESVDSYGTSFMHWYQQKPGQPPKLLIYLASNLESGVPASFSGSGSRTDFTLTIDPVEADDAATYYCQQNNEDPWTFGGGTKLEIK
With B6, the percent blocking in experiment [1] was found to be 85.2%; in experiment [2], 85.2%; in experiment [3], 0.4%; in experiment [4], 37.4%; in experiment [5], 17.8%; in experiment [6] it was 43%. This molecule yielded a percent blocking in experiment [7] of 73.5%.

B7: 1035211 (antibody, V domains shown)
VH: QVQLQQSGAELARPGASVKMSCKASGYTFTNYTMHWVKQRPGQGLEWIGYINPSSGYTNYNQKFKDKATLTADKSSSTAYMQLSSLTSEDSAVYYCARRNPLYAMDYWGQGTSVTVSS
VL: DIKMTQSPSSMYASLGERVTITCKASQDINSYLNWFQQKPGKSPKTLIYRANRLVDGVPSRFSGSGSGQDYSLTISSLEFEDMGIYYCLQYDEFPYTFGGGTKLEIK
Regarding B7, the percent blocking is 98.7% in experiment [1]; 98.7% in experiment [2]; 0% in experiment [3]; 1.7% in experiment [4]; 76.3% in experiment [5]; 18.1% in experiment [6]. Moreover, the percent blocking in experiment [7] was 0%; in experiment [8], 72.4%.

(Values after patent publication US20230408517A1 (BIO TECHNE, published 2023).)
